Data as given in patent US20030175273A1 (Kyowa Kirin, published 2003).
Ends that are not written are not given here.

T1: BSA-Compound 1 (human CCR4 extracellular region peptide Compound 1 conjugated with BSA) (human, also: conjugated to BSA through SMCC, site not given here)
T1 construct: the claims speak of positions 13 to 29; ELISA antigen; also called CCR4 partial peptide
T1 peptide: DESIYSNYYLYESIPKPC

T2: human CC chemokine receptor 4 (CCR4) on CCR4/EL-4 cells (human, UniProt P51679 1-360)
T2 construct: also called hCCR4; human CCR4-high-expressing cell
T2 sequence: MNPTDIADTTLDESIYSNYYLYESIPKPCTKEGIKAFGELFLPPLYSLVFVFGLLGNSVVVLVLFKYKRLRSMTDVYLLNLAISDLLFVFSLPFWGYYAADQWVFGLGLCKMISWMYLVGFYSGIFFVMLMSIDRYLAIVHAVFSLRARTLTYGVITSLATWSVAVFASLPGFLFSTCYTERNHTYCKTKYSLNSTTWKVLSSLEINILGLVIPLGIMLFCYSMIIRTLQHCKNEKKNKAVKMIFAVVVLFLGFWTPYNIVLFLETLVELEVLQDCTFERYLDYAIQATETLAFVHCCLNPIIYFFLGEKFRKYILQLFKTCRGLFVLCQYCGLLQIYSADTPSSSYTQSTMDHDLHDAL

T3: biotinylated Compound 1 (biotinylated CCR4 partial peptide) (human, also: biotinylated, site not given here)
T3 construct: Same peptide as in BSA-Compound 1
T3 peptide: DESIYSNYYLYESIPKPC

B1: anti-CCR4 CDR-grafted antibody Ga10LV0 (antibody, human IgG1, V domains shown)
VH: EVQLVESGGDLVQPGRSLRLSCAASGFIFSNYGMSWVRQAPGKGLEWVATISSASTYSYYPDSVKGRFTISRDNAKNSLYLQMNSLRVEDTALYYCARHSDGNFAFGYWGQGTLVTVSS
VL: DIVMTQSPLSLPVTPGEPASISCRSSRNIVHINGDTYLEWYLQKPGQSPQLLIYKVSNRFSGVPDRFSGSGSGTDFTLKISRVEAEDVGVYYCFQGSLLPWTFGQGTKVEIK
notes: CDR alone grafted; Tested as COS-7 supernatant and as purified antibody from YB2/0; also called pKANTEX2160Ga10LV0; pKM2160Ga10LV0
B2: anti-CCR4 CDR-grafted antibody HV1LV1 (antibody, human IgG1, V domains shown)
VH: EVQLVESGGGLVQPGGSLRLSCAASGFIFSNYGMSWVRQAPGKGLEWVSTISSASTYSYYPDSVKGRFTISRDNSKNTLYLQMNSLRAEDTAVYYCARHSDGNFAFGYWGQGTLVTVSS
VL: DVVMTQSPLSLPVTPGEPASISCRSSRNIVHINGDTYLEWYLQKPGQSPQLLIYKVSNRFSGVPDRFSGSGSGTDFTLKISRVEAEDVGVYYCFQGSLLPWTFGQGTKVEIK
notes: Tested as COS-7 culture supernatant only; also called pKM2160HV1LV1
B3: anti-CCR4 CDR-grafted antibody HV2LV0 (antibody, human IgG1, V domains shown)
VH: EVQLVESGGGLVQPGGSLRLSCAASGFTFSNYGMSWVRQAPGKGLEWVSTISSASTYSYYPDSVKGRFTISRDNSKNTLYLQMNSLRAEDTAVYYCGRHSDGNFAFGYWGQGTLVTVSS
VL: DIVMTQSPLSLPVTPGEPASISCRSSRNIVHINGDTYLEWYLQKPGQSPQLLIYKVSNRFSGVPDRFSGSGSGTDFTLKISRVEAEDVGVYYCFQGSLLPWTFGQGTKVEIK
notes: Tested as COS-7 culture supernatant only; also called pKM2160HV2LV0
B4: anti-CCR4 CDR-grafted antibody Ga10LV2 (antibody, human IgG1, V domains shown)
VH: EVQLVESGGDLVQPGRSLRLSCAASGFIFSNYGMSWVRQAPGKGLEWVATISSASTYSYYPDSVKGRFTISRDNAKNSLYLQMNSLRVEDTALYYCARHSDGNFAFGYWGQGTLVTVSS
VL: DILMTQSPLSLPVTPGEPASISCRSSRNIVHINGDTYLEWYLQKPGQSPQLLIYKVSNRFSGVPDRFSGSGSGTDFTLKISRVEAEDVGVYYCFQGSLLPWTFGQGTKVEIK
notes: Tested as COS-7 culture supernatant only; also called pKM2160Ga10LV2
B5: anti-CCR4 CDR-grafted antibody HV0LV0 (antibody, human IgG1, V domains shown)
VH: EVQLVESGGGLVQPGGSLRLSCAASGFTFSNYGMSWVRQAPGKGLEWVSTISSASTYSYYPDSVKGRFTISRDNSKNTLYLQMNSLRAEDTAVYYCARHSDGNFAFGYWGQGTLVTVSS
VL: DIVMTQSPLSLPVTPGEPASISCRSSRNIVHINGDTYLEWYLQKPGQSPQLLIYKVSNRFSGVPDRFSGSGSGTDFTLKISRVEAEDVGVYYCFQGSLLPWTFGQGTKVEIK
notes: Tested as COS-7 culture supernatant only; also called pKM2160HV0LV0
B6: anti-CCR4 CDR-grafted antibody HV1LV0 (antibody, human IgG1, V domains shown)
VH: EVQLVESGGGLVQPGGSLRLSCAASGFIFSNYGMSWVRQAPGKGLEWVSTISSASTYSYYPDSVKGRFTISRDNSKNTLYLQMNSLRAEDTAVYYCARHSDGNFAFGYWGQGTLVTVSS
VL: DIVMTQSPLSLPVTPGEPASISCRSSRNIVHINGDTYLEWYLQKPGQSPQLLIYKVSNRFSGVPDRFSGSGSGTDFTLKISRVEAEDVGVYYCFQGSLLPWTFGQGTKVEIK
notes: Tested as COS-7 culture supernatant only; also called pKM2160HV1LV0
B7: anti-CCR4 CDR-grafted antibody HV0LV3 (antibody, human IgG1, V domains shown)
VH: EVQLVESGGGLVQPGGSLRLSCAASGFTFSNYGMSWVRQAPGKGLEWVSTISSASTYSYYPDSVKGRFTISRDNSKNTLYLQMNSLRAEDTAVYYCARHSDGNFAFGYWGQGTLVTVSS
VL: DVLMTQSPLSLPVTPGEPASISCRSSRNIVHINGDTYLEWYLQKPGQSPQLLIYKVSNRFSGVPDRFSGSGSGTDFTLKISRVEAEDVGVYYCFQGSLLPWTFGQGTKVEIK
notes: Tested as COS-7 culture supernatant only; also called pKM2160HV0LV3
B8: anti-CCR4 CDR-grafted antibody HV2LV3 (antibody, human IgG1, V domains shown)
VH: EVQLVESGGGLVQPGGSLRLSCAASGFTFSNYGMSWVRQAPGKGLEWVSTISSASTYSYYPDSVKGRFTISRDNSKNTLYLQMNSLRAEDTAVYYCGRHSDGNFAFGYWGQGTLVTVSS
VL: DVLMTQSPLSLPVTPGEPASISCRSSRNIVHINGDTYLEWYLQKPGQSPQLLIYKVSNRFSGVPDRFSGSGSGTDFTLKISRVEAEDVGVYYCFQGSLLPWTFGQGTKVEIK
notes: Tested as COS-7 culture supernatant only; also called pKM2160HV2LV3
B9: anti-CCR4 CDR-grafted antibody HV1LV3 (antibody, human IgG1, V domains shown)
VH: EVQLVESGGGLVQPGGSLRLSCAASGFIFSNYGMSWVRQAPGKGLEWVSTISSASTYSYYPDSVKGRFTISRDNSKNTLYLQMNSLRAEDTAVYYCARHSDGNFAFGYWGQGTLVTVSS
VL: DVLMTQSPLSLPVTPGEPASISCRSSRNIVHINGDTYLEWYLQKPGQSPQLLIYKVSNRFSGVPDRFSGSGSGTDFTLKISRVEAEDVGVYYCFQGSLLPWTFGQGTKVEIK
notes: Tested as COS-7 culture supernatant only; also called pKM2160HV1LV3
B10: anti-CCR4 CDR-grafted antibody HV3LV3 (antibody, human IgG1, V domains shown)
VH: EVQLVESGGGLVQPGGSLRLSCAASGFIFSNYGMSWVRQAPGKGLEWVSTISSASTYSYYPDSVKGRFTISRDNSKNTLYLQMNSLRAEDTAVYYCGRHSDGNFAFGYWGQGTLVTVSS
VL: DVLMTQSPLSLPVTPGEPASISCRSSRNIVHINGDTYLEWYLQKPGQSPQLLIYKVSNRFSGVPDRFSGSGSGTDFTLKISRVEAEDVGVYYCFQGSLLPWTFGQGTKVEIK
notes: Tested as COS-7 culture supernatant only; also called pKM2160HV3LV 3
B11: anti-CCR4 CDR-grafted antibody HV3LV0 (antibody, human IgG1, V domains shown)
VH: EVQLVESGGGLVQPGGSLRLSCAASGFIFSNYGMSWVRQAPGKGLEWVSTISSASTYSYYPDSVKGRFTISRDNSKNTLYLQMNSLRAEDTAVYYCGRHSDGNFAFGYWGQGTLVTVSS
VL: DIVMTQSPLSLPVTPGEPASISCRSSRNIVHINGDTYLEWYLQKPGQSPQLLIYKVSNRFSGVPDRFSGSGSGTDFTLKISRVEAEDVGVYYCFQGSLLPWTFGQGTKVEIK
notes: Tested as COS-7 culture supernatant only; also called pKM2160HV3LV0
B12: anti-CCR4 CDR-grafted antibody HV0LV2 (antibody, human IgG1, V domains shown)
VH: EVQLVESGGGLVQPGGSLRLSCAASGFTFSNYGMSWVRQAPGKGLEWVSTISSASTYSYYPDSVKGRFTISRDNSKNTLYLQMNSLRAEDTAVYYCARHSDGNFAFGYWGQGTLVTVSS
VL: DILMTQSPLSLPVTPGEPASISCRSSRNIVHINGDTYLEWYLQKPGQSPQLLIYKVSNRFSGVPDRFSGSGSGTDFTLKISRVEAEDVGVYYCFQGSLLPWTFGQGTKVEIK
notes: Tested as COS-7 culture supernatant only; also called pKM2160HV0LV2
B13: anti-CCR4 CDR-grafted antibody HV0LV1 (antibody, human IgG1, V domains shown)
VH: EVQLVESGGGLVQPGGSLRLSCAASGFTFSNYGMSWVRQAPGKGLEWVSTISSASTYSYYPDSVKGRFTISRDNSKNTLYLQMNSLRAEDTAVYYCARHSDGNFAFGYWGQGTLVTVSS
VL: DVVMTQSPLSLPVTPGEPASISCRSSRNIVHINGDTYLEWYLQKPGQSPQLLIYKVSNRFSGVPDRFSGSGSGTDFTLKISRVEAEDVGVYYCFQGSLLPWTFGQGTKVEIK
notes: Tested as COS-7 culture supernatant only; also called pKM2160HV0LV1
B14: anti-CCR4 CDR-grafted antibody HV1LV2 (antibody, human IgG1, V domains shown)
VH: EVQLVESGGGLVQPGGSLRLSCAASGFIFSNYGMSWVRQAPGKGLEWVSTISSASTYSYYPDSVKGRFTISRDNSKNTLYLQMNSLRAEDTAVYYCARHSDGNFAFGYWGQGTLVTVSS
VL: DILMTQSPLSLPVTPGEPASISCRSSRNIVHINGDTYLEWYLQKPGQSPQLLIYKVSNRFSGVPDRFSGSGSGTDFTLKISRVEAEDVGVYYCFQGSLLPWTFGQGTKVEIK
notes: Tested as COS-7 culture supernatant only; also called pKM2160HV1LV2

Biological target: T1, BSA-Compound 1 (human CCR4 …)
Assay: ELISA on BSA-Compound 1, COS-7 culture supernatant
Protocol: Into a 96 well ELISA plate (manufactured by Greiner), 0.05 μg/ml of the prepared conjugate was dispensed in at 50 μl/well and allowed to stand at 4° C. overnight for adsorption. After washing with PBS, PBS containing 1% BSA (hereinafter referred to as “1% BSA-PBS”) was added thereto at 100 μl/well and allowed to react at room temperature for 1 hour to block the remaining active groups. After washing each well with PBS containing 0.05% Tween 20 (hereinafter referred to as “Tween-PBS”), a culture supernatant of the transformant was added at 50 μl/well and allowed to react at room temperature for 1 hour. After the reaction and subsequent washing of each well with Tween-PBS, a peroxidase-labeled goat anti-human IgG(γ) antibody solution (manufactured by American Qualex) diluted 6,000 folds with 1% BSA-PBS was added as a secondary antibody solution in 50 μl/well portions and allowed to react at room temperature for 1 hour After the reaction and subsequent washing with Tween-PBS, an ABTS substrate solution (a solution prepared by dissolving 0.55 g of […] ammonium in 1 liter of 0.1 M citrate buffer (pH 4.2) and adding 1 μl/ml hydrogen peroxide just before use) was added at 50 μl/well to develop color, and the reaction was stopped 20 minutes thereafter by adding 5% SDS solution at 50 μl/well. Thereafter, absorbance at 415 nm was measured.

Binder	binding result
B1	binds
B2	binds
B3	binds
B4	binds
B5	binds
B6	binds
B7	binds
B8	binds
B9	binds
B10	binds
B11	binds
B12	binds
B13	binds
B14	binds

What follows are binders tested against T2, human CC chemokine receptor 4 (CCR4) on … (assay: flow cytometry on CCR4/EL-4 cells, antibody at 10 µg/ml).
Protocol: Into a 96 well plate, 2×10⁵ or more of CCR4/EL-4 cells, CCR4-high-expressing cells obtained in Reference Example 3, were dispensed. An antibody solution was prepared by diluting each of the purified antibodies and a human immunoglobulin (manufactured by Welfide) for preventing nonspecific staining to give concentrations of 10 μg/ml and 3.75 mg/ml, respectively, with a buffer for FACS, and the antibody solution was added at 100 μl/well and allowed to react for 30 minutes in ice. As a negative control, 10 μg/ml of an anti-human IL-5 receptor a chain antibody (WO 97/10354) was used. After washing twice with 200 μl/well of the buffer for FACS, a PE-labeled anti-human IgG antibody (manufactured by Coulter) diluted 100 times was added at 50 μl/well. After the reaction in ice under shading and subsequent washing three times with 200 μl/well of the buffer for FACS, the reaction product was suspended in 500 μl of the buffer for FACS and the fluorescence intensity was measured using a flow cytometer.

Binder	binding result
B1	binds

Biological target: T3, biotinylated Compound 1 (biotinylated …)
Assay: BIAcore 2000, biotinylated Compound 1 on sensor tip SA, antibody at 4 µg/ml
Protocol: In order to measure the binding activity in more detail, the binding activity of various purified antibodies was measured using BIAcore 2000 (manufactured by BIACORE) as follows. In this case, HBS-EP (manufactured by BIACORE) was used as the buffer for diluting samples and for the measurement. First, 5 μl of 0.05 μg/ml solution of Compound 1 as a biotinylated CCR4 partial peptide was added to a sensor tip SA (manufactured by BIACORE) at a flow rate of 5 μl/minute and immobilized on the sensor tip.
To the prepared biotinylated compound 1 -immobilized sensor tip, 20 μl of 4 μg/ml solution of each of the purified antibodies was added at a flow rate of 5 μl/minute, and after completion of the addition, the dissociation reaction was monitored for 4 minutes and then the sensor tip surface was regenerated by adding 5 μl of 10 mM HCl twice. In this way, a binding reaction curve (sensorgram) for Compound 1 was obtained.

Binder	binding result
B1	binds
